Measurements as given in patent US7202329B2, “Tsg101-GAGp6 interaction and use thereof” (priority 2001, dated 2007).

Legend:
ROCK1 = ROCK1 (Homo sapiens, UniProt Q13464); conditions: cited from earlier work
Tsg101 = target: T1, Tsg101 (Homo sapiens, UniProt Q99816); experiment: Yeast two-hybrid filter lift assay for β-Gal activity (Tsg101 / GAGp6 interaction); format: cell-based; set-up: key to Interactions Between Tsg101 and GAGp6 (β-Gal activity, filter lift): +: Positive β-Gal activity indicates that the GAGp6 wild type or mutant protein interacts with Tsg101; conditions: for ability to bind Tsg101 protein (in words): yeast two-hybrid, GAGp6 point mutants
T1 construct: expressed in transfected cells; host or cells: Saccharomyces cerevisiae strain Y189
T1 sequence (Q99816 1-390): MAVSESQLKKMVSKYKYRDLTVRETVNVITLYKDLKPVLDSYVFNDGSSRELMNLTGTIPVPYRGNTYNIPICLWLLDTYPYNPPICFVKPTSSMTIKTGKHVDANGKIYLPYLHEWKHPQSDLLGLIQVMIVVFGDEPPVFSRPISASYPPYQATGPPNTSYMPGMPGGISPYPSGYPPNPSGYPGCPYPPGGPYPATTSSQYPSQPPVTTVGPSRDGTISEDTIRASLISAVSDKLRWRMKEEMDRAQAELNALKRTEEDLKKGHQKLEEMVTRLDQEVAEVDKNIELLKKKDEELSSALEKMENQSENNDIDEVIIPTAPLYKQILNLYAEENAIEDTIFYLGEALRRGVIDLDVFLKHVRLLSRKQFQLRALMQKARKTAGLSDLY
Description: Yeast two-hybrid assays were utilized to determine the effect of amino acid substitution mutations in the PTAP motif of HIV GAGp6 on the interaction between Tsg101 and GAGp6. To prepare a yeast two-hybrid activation domain-Tsg101 construct, a DNA fragment encompassing the full-length coding sequence for Tsg101 according to GenBank Accession No. U82130 was obtained by PCR from a human fetal brain cDNA library and cloned into the EcoRI/Pst1 sites of the activation domain parent plasmid GADpN2 (LEU2, CEN4, ARS1, ADH1p-SV40NLS-GAL4 (768–881)-MCS (multiple cloning site)-PGK1t, AmpR, ColE1_ori).
To prepare the yeast two-hybrid DNA binding domain-HIV1 GAGp6 construct, a DNA fragment corresponding to the HIV1 GAGp6 peptide derived from the HIV1.NL43 strain GAG protein was obtained by PCR from the NL43 containing plasmid R9≢apa and was cloned into the EcoRI/Sal1 sites of the binding domain parent plasmid pGBT.Q.
The following amino acid substitution mutations were introduced by PCR into the HIV1 GAGp6 sequence in the yeast two-hybrid binding domain-HIV1 GAGp6 construct described above. The mutations were verified by DNA sequence analysis.
To test the effect of the mutations, yeast cells of the strain Y189 purchased from Clontech (ura3-52 his3*200 ade2-101 trp1-901 leu2-3,112 met gal4 gal80 URA3::GAL1p-lacZ) were co-transformed with the activation domain-Tsg101 construct and one of the binding domain-mutant GAGp6 constructs or the binding domain-wild type GAGp6 construct. Filter lift assays for β-Gal activity were conducted by lifting the transformed yeast colonies with filters, lysing the yeast cells by freezing and thawing, and contacting the lysed cells with X-Gal. […] All binding domain constructs were also tested for self-activation of β-Gal activity.

Full length Tsg101 = target: T2, Full length Tsg101 (Homo sapiens, UniProt Q99816); experiment: Two-hybrid liquid culture β-galactosidase assay; format: cell-based; conditions: p6 point mutants
T2 construct: expressed in transfected cells; host or cells: Saccharomyces cerevisiae strain Y189
T2 sequence (Q99816 1-390): T1 sequence (Q99816 1-390)
Method: The interactions between Tsg101 and wild-type GAGp6 (WT) or the GAGp6 PTAP mutants were further quantitated by performing liquid culture β-galactosidase assays. Cultures were grown overnight in synthetic media (−Leu, −Trp, +glucose) in 96 well plates, normalized for optical density, and lysed by addition of 6× lysis/substrate solution in 6× Z-buffer (60 mM KCl, 6 mM MgSO4, 360 mM Na2HPO4, 240 mM NaH2PO4, 6 mg/ml CPRG, 0.12U/ml lyticase, 0.075% NP-40). Cultures were incubated for 2 hr at 37° C., clarified by centrifugation, and the optical absorbance of each supernatant was measured (575 nm). Full length Tsg101 bound wild-type p6 in the two-hybrid liquid culture assay, resulting in high levels of β-galactosidase activity (>300-fold over background). […] Each of these point mutations also arrests HIV-1 budding at a late stage (Huang et al. 1995).

[1] = target: T3, interaction between GST-p6 and myc-Tsg101(1-207) (Homo sapiens, UniProt Q99816); experiment: In vitro binding assay: competition of p6(1-14) with GST-p6 for myc-Tsg101(1-207)
T3 construct: Drosophila S2 cell lysate myc-tagged Tsg101 (residues 1–207); made in house; host or cells: Drosophila S2 cells (used as lysate)
T3 sequence (Q99816 1-207): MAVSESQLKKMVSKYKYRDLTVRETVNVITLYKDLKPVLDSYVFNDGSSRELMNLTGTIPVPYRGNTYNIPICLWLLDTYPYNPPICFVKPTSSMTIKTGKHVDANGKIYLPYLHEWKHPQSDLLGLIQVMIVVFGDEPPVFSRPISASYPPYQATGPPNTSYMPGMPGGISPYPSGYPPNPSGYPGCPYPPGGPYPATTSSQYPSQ
Method: A fusion protein with a GST tag fused to the HIV-1 GAGp6 domain was recombinantly expressed and purified by chromatography. In addition, a GAGp6 peptide containing the first 14 amino acid residues (“p6(1–14)”) was synthesized chemically by standard peptide synthesis methods. The peptide was purified by conventional protein purification techniques, e.g., by chromatography.
Nunc/Nalgene Maxisorp plates were incubated overnight at 4° C. or for 1–2 hrs at room temperature in 100 μl of a protein coupling solution containing purified GST-p6 and 50 mM Carbonate, pH=9.6. This allowed the attachment of the GST-p6 fusion protein to the plates. Liquids in the plates were then emptied and wells filled with 400 μl/well of a blocking buffer (SuperBlock; Pierce-Endogen, Rockford, Ill.). […]
Plates were then washed 4×100 μl with 1× PBST solution (Invitrogen; Carlsbad, Calif.). […] Plates were then read on a Packard Fusion instrument at an excitation wavelength of 325 nm and an emission wavelength of 420 nm. […]
Different concentrations of the p6(1–14) peptide were tested, and the relative intensities of the fluorescence signals obtained at different concentrations were plotted against the peptide concentrations. […]

Chain of ROCK1 (Q13464 whole entry): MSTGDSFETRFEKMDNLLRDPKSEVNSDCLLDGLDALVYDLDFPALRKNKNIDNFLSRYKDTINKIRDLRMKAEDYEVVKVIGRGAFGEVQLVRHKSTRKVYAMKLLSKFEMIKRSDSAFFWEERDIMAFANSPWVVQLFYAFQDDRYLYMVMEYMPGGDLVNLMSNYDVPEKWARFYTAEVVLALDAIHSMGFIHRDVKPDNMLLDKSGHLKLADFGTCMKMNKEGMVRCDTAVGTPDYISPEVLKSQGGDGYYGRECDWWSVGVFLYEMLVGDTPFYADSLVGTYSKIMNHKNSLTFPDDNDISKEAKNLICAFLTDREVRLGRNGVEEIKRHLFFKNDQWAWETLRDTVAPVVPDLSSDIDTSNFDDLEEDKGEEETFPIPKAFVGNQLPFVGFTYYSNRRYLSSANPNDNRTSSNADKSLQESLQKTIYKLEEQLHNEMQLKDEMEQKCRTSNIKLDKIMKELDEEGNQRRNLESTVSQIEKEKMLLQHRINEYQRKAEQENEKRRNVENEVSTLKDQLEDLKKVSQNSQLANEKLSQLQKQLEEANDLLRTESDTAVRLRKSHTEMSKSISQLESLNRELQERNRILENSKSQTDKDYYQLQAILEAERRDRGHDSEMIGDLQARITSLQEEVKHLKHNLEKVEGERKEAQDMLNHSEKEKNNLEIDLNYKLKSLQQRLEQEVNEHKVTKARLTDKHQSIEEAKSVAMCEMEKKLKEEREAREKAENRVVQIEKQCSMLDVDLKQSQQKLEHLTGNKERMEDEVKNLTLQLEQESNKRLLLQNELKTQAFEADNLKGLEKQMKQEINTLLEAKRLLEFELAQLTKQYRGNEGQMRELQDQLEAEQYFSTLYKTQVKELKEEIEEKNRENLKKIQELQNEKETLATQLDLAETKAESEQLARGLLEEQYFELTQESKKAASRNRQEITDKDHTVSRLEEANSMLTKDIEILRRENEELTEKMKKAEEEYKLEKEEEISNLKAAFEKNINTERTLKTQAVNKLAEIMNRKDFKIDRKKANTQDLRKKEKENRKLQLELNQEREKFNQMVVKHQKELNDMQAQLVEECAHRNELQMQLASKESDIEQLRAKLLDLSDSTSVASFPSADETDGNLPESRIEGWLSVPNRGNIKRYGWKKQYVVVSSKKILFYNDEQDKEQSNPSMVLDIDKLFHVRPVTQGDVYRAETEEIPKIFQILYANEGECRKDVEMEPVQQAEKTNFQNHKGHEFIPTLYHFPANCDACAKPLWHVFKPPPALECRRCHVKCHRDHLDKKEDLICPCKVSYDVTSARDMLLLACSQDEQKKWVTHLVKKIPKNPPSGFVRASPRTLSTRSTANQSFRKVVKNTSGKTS

Row | Compound | ability to bind Tsg101 protein (in words) (Tsg101) | β-galactosidase activity (in words) (Full length Tsg101) | other results
1 | C[C@@H](N)[C@H]1CC[C@H](C(=O)Nc2ccncc2)CC1 [Y-27632, (+)-(R)-trans-4-(1-aminoethyl)-N-(4-pyridyl) cyclohexanecarboxamide] | – | – | selectivity for ROCK1 (ROCK1): highly selective for ROCK1
2 | P6/A9R (LQSRPEPTRPPEESFRFGEETTTPSQKQEPIDKELYPLASLRSLFGSDPSSQ; left off: large carriers; small tags and cut ends) | abolishes the GAGp6 binding affinity to Tsg101 | reduced β-galactosidase activity to background levels | –
3 | P6/E6G (LQSRPGPTAPPEESFRFGEETTTPSQKQEPIDKELYPLASLRSLFGSDPSSQ; left off: large carriers; small tags and cut ends) | did not result in the elimination of the Tsg101-GAGp6 interaction | – | Interactions Between Tsg101 and GAGp6 (β-Gal activity, filter lift) (Tsg101; yeast strain Y189 co-transformed with activation domain-Tsg101 construct and binding domain-GAGp6 construct): +; ability to bind Tsg101 protein (in words) (Tsg101; listed as E6G GAGp6 mutant): capable of binding Tsg101 protein
4 | P6/P7L (LQSRPELTAPPEESFRFGEETTTPSQKQEPIDKELYPLASLRSLFGSDPSSQ; left off: large carriers; small tags and cut ends) | abolishes the GAGp6 binding affinity to Tsg101 | reduced β-galactosidase activity to background levels | –
5 | P6/P10L (LQSRPEPTALPEESFRFGEETTTPSQKQEPIDKELYPLASLRSLFGSDPSSQ; left off: large carriers; small tags and cut ends) | abolishes the GAGp6 binding affinity to Tsg101 | reduced β-galactosidase activity to background levels | –
6 | p6(1-14): chemically synthesized GAGp6 peptide containing the first 14 amino acid residues, includes the PTAP late domain motif (LQSRPEPTAPPEES) | – | – | inhibition of protein-protein interaction between GST-p6 and myc-Tsg101(1-207) ([1]; competitive inhibition curve, FIG. 2): capable of inhibiting; binding to the N-terminal portion of Tsg101 (amino acid residues 1–207) ([1]; includes the Tsg101 UEV domain): sufficient in binding
